Target: Orai1-GFP (UniProt Q96D31)
Assay: FRET or BRET

UniProt Q96D31, sequence (Q96D31 whole entry): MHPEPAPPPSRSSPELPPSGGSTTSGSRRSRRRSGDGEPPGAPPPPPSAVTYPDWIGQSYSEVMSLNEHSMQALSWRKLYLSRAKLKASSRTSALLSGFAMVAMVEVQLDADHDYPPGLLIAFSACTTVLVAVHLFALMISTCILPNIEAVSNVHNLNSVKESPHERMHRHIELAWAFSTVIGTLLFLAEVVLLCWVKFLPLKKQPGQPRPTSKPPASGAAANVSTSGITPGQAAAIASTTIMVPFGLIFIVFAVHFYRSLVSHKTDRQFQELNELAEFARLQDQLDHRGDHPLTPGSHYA

E-FRET: 0.26
Substance: STIM1A-mCherry (from UniProt Q13586) (natural protein)

Source: publication doi:10.1101/2020.03.25.005199
